Laboratory results reported in IntAct's records for PubMed 16762039.

Molecular target: hic1_human HIC1 (UniProt Q14526)
Sequence (Q14526 whole entry): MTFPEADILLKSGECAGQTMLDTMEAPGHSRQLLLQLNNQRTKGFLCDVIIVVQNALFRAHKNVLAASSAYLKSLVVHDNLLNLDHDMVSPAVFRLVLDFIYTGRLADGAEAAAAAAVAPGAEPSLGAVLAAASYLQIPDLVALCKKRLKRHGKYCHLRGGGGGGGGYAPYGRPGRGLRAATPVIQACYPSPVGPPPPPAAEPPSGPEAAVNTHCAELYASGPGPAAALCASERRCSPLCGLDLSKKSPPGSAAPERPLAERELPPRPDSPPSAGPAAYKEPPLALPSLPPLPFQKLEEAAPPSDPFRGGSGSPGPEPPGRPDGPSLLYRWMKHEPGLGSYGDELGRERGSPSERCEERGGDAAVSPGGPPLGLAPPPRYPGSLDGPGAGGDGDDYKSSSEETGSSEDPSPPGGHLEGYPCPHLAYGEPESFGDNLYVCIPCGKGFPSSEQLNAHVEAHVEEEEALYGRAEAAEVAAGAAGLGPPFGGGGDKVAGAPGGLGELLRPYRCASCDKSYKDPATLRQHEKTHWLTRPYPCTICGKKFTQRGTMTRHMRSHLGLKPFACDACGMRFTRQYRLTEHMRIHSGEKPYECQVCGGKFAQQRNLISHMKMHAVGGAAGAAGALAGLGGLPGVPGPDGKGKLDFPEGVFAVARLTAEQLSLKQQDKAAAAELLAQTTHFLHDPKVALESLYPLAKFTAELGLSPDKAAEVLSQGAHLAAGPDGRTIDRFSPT

C-terminal-binding protein 2 (Mus musculus), P56546 A58E, sequence (P56546 whole entry A58E): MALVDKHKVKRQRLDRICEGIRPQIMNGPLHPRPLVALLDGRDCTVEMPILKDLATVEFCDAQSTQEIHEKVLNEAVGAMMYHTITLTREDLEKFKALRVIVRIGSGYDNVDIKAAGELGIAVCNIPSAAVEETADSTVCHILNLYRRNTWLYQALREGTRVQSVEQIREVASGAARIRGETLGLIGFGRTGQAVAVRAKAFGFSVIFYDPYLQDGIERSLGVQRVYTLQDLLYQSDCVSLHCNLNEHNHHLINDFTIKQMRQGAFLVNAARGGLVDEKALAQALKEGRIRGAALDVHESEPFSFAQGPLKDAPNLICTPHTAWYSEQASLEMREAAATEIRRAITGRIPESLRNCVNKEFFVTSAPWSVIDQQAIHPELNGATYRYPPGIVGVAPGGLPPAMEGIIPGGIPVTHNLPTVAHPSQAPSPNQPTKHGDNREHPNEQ
C-terminal-binding protein 2 (Mus musculus), P56546 V72R, sequence (P56546 whole entry V72R): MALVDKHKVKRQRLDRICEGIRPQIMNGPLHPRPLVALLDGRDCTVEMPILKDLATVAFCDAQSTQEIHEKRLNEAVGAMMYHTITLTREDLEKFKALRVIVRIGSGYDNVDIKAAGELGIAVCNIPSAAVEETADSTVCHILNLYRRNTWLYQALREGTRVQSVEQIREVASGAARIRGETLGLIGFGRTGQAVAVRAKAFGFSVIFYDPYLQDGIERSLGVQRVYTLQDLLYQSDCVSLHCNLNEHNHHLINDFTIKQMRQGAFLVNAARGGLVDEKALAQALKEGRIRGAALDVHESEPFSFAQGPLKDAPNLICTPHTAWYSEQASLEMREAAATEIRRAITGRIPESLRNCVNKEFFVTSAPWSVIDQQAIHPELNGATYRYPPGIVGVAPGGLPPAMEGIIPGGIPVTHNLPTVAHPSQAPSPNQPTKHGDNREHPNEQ

effect of a mutation on the interaction	Substance
disrupting interaction	C-terminal-binding protein 2 (Mus musculus), P56546 A58E
disrupting interaction	C-terminal-binding protein 2 (Mus musculus), P56546 V72R
